This note sets out measurements from US20200078441A1 (TAIPEI VETERANS GENERAL HOSPITAL, published 2020).

The chains are these.
B1: PepSpot array peptide 23 (peptide)
peptide: QDSGVSSYISAASPA
notes: 15-mer of the MSI1 C-terminus spotted on the PepSpot membrane; also called Index 23
B2: PepSpot array peptide 21 (peptide)
peptide: TSPGPMAELYGAANQ
notes: 15-mer of the MSI1 C-terminus spotted on the PepSpot membrane; also called Index 21
B3: PepSpot array peptide 13 (peptide)
peptide: SAPVLPELTAIPLTA
notes: 15-mer of the MSI1 C-terminus spotted on the PepSpot membrane; also called Index 13
B4: PepSpot array peptide 16 (peptide)
peptide: AAAAAAVVRGTGSHP
notes: 15-mer of the MSI1 C-terminus spotted on the PepSpot membrane; also called Index 16
B5: PepSpot array peptide 15 (peptide)
peptide: AYGPMAAAAAAAAVV
notes: 15-mer of the MSI1 C-terminus spotted on the PepSpot membrane; also called Index 15
B6: PepSpot array peptide 22 (peptide)
peptide: ELYGAANQDSGVSSY
notes: 15-mer of the MSI1 C-terminus spotted on the PepSpot membrane; also called Index 22
B7: PepSpot array peptide 14 (peptide)
peptide: LTAIPLTAYGPMAAA
notes: 15-mer of the MSI1 C-terminus spotted on the PepSpot membrane; also called Index 14
B8: PepSpot array peptide 12 (peptide)
peptide: VERTPLPSAPVLPEL
notes: 15-mer of the MSI1 C-terminus spotted on the PepSpot membrane; also called Index 12

T1 sequence (Q9UKV8 other isoform, or with tags, fused parts or gaps limits assumed): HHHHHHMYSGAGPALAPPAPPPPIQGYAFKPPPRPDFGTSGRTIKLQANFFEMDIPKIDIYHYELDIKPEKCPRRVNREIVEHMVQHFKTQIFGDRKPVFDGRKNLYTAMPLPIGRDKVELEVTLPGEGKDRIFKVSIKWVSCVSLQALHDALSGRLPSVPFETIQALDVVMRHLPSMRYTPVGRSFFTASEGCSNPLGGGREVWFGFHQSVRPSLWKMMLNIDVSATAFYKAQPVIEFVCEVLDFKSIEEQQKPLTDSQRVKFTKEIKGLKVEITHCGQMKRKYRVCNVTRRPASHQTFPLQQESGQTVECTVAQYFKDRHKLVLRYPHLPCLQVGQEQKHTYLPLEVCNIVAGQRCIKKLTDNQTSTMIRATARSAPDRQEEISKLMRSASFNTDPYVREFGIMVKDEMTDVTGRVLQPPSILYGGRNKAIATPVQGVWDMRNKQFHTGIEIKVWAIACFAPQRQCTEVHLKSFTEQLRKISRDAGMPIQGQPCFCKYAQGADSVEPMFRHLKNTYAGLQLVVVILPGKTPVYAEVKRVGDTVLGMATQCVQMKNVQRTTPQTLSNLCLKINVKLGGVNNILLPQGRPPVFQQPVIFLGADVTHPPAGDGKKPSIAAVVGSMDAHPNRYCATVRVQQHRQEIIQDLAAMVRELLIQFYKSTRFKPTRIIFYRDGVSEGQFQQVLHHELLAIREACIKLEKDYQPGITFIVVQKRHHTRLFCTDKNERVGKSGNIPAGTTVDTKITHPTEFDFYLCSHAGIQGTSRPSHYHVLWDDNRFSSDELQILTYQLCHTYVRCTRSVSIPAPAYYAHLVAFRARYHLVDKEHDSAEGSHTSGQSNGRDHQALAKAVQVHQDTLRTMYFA

This experiment has as its target T1, recombinant His-tagged AGO2 protein (human Argonaute 2, baculovirus-expressed) (human, UniProt Q9UKV8 1-859).
T1 construct: Expressed in High Five insect cells and purified on nickel resin; also called His-AGO2; HisAGO2
In words: PepSpot peptide array incubated with recombinant His-tagged AGO2 (2 µg), detected with anti-His-HRP.
Method: The association rate constant (Kₐ), dissociation rate constant (Kd), and equilibrium dissociation constant (KD) were calculated and presented in the chart (bottom).
Take B1: the binding result is recorded as “no binding”.

Regarding B2, the binding result was “no binding”.

As to B3, the binding result is “no binding”.

Turning to B4, the binding result is listed as “no binding”.

Consider B5, for which the binding result is given as “no binding”.

For the molecule B6, the binding result is reported as “no binding”.

For the molecule B7, the binding result is recorded as “no binding”.

Consider B8, for which the binding result is on record as “no binding”.
